Test results taken from IntAct's records for PubMed 23622245.

B1: Proteasome inhibitor PI31 subunit (Drosophila melanogaster (Fruit fly)), Q9V637 (parent)
chain: MESGSTAKTGDFFYGWDLLYKTVKADVSKKSDLLIALVHFLLTKHYNFRCVGVGDDKTLPEEEGSELLPDSWNDDDTKYSLRYVHDKMLYLLLGHITEGSLLINLLDINTKKVSNICVEPETLVPEVKGGITTIMPSASEIVERYRRELLDPVFTGNSREVTTQTTNSPRPIGSDPDPLRIGEPRRGGSFIPSAFEPRPFGFPDVGRGDLDPLGRGGHGNLFSFPSRPNMGPGPVPRFDPFNPLNPNRPGQGGINPDHMRPPDWNPDYYM
partner: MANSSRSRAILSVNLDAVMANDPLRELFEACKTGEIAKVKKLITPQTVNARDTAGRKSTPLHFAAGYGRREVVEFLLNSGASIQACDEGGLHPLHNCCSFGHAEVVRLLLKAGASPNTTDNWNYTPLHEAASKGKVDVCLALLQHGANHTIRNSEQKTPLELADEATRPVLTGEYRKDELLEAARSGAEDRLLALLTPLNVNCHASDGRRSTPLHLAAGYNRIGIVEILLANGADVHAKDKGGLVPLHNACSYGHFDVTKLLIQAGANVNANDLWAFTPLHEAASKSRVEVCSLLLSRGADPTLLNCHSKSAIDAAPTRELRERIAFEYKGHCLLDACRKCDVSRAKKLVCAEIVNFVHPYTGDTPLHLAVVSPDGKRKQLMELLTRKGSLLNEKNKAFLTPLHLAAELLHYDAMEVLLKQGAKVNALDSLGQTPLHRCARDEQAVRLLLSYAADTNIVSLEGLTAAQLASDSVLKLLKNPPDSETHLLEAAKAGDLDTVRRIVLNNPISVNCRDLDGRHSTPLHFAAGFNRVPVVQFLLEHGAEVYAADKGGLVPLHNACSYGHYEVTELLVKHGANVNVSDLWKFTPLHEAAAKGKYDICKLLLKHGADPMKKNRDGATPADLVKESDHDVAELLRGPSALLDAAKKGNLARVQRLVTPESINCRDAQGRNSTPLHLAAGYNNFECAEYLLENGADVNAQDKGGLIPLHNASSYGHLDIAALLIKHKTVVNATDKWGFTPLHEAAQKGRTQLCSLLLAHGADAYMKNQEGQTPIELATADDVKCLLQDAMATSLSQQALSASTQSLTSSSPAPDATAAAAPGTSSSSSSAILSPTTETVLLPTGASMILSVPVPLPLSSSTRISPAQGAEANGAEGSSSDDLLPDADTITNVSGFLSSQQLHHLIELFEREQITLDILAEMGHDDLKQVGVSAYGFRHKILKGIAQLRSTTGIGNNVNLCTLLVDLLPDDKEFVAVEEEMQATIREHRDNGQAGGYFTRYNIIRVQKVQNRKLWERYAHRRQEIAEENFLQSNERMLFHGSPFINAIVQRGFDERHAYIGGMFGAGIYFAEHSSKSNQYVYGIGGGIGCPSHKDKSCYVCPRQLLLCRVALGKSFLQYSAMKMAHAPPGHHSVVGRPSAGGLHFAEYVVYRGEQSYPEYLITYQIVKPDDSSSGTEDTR
B2: Proteasome inhibitor PI31 subunit (Drosophila melanogaster (Fruit fly)), Q9V637 (parent)
chain: B1 chain
partner: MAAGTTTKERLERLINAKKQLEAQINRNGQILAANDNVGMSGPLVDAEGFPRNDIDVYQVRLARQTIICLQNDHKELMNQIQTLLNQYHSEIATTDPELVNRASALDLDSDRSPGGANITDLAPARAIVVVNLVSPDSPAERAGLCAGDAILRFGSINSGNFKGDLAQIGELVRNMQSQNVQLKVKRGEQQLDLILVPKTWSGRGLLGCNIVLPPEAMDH
B3: 26S proteasome non-ATPase regulatory subunit 5 (Drosophila melanogaster (Fruit fly)), Q9VYG1 (parent)
chain: MEMEDNWWVTKLKALESKPQRLDALTAMNSAIAKEAALPRQIIERLLTTDQLYDCANPAADSHVPKDQAVDVTLELLCHCLDQLAMDTADEQLSSLLRRGLTHSNPALRAQVLASLFKKLLRQLTVGQVLTLPNNELIFLILDELKQPDTQSTSLAINILSIVLPQRISNADVQAKLVQLLKQNEIVRCRAYELAVVLAKKSATLLSDVTFILDAALSELDNDDVLLQASVMELLVPLAEQNHGLSYMERRRVLDIISYRVQRVEEHPLDALLVPSIMKFFGKISVYQPLKIIGGYPHMLACLFMQLQSEDESILPTAMDTLANLATTPQGKILLNMHFSGAMEKSFKKYGSHTKKLSAHIKKRLLNSLDVIYDFKTPPATEIINIGKNWYECFAGGAHANIIMDLINTPFPDLQMAALSFLKTICKYNWGIVALKNTGGAVEFLLSRQKDLHRDIKYMKWQIMEILSASAEFSPTETIRFTAYVNEGPYHVQADLDVATEPQGNA
partner: B1 chain
B4: Proteasome inhibitor PI31 subunit (Drosophila melanogaster (Fruit fly)), Q9V637 (parent)
chain: B1 chain
partner: B3 chain
B5: 26S proteasome non-ATPase regulatory subunit 9 (Drosophila melanogaster (Fruit fly)), Q9VFS8 (parent)
chain: B2 partner
partner: B1 chain

Variants of: B1
Details: with tnks_drome Tnks

effect of a mutation on the interaction | Variant
disrupting interaction strength | MESGSTAKTGDFFYGWDLLYKTVKADVSKKSDLLIALVHFLLTKHYNFACVGVADDKTLPEEEGSELLPDSWNDDDTKYSLRYVHDKMLYLLLGHITEGSLLINLLDINTKKVSNICVEPETLVPEVKGGITTIMPSASEIVERYRRELLDPVFTGNSREVTTQTTNSPRPIGSDPDPLRIGEPRRGGSFIPSAFEPRPFGFPDVGRGDLDPLGRGGHGNLFSFPSRPNMGPGPVPRFDPFNPLNPNRPGQGGINPDHMRPPDWNPDYYM [R49A;G54A]
disrupting interaction strength | MESGSTAKTGDFFYGWDLLYKTVKADVSKKSDLLIALVHFLLTKHYNFRCVGVGDDKTLPEEEGSELLPDSWNDDDTKYSLRYVHDKMLYLLLGHITEGSLLINLLDINTKKVSNICVEPETLVPEVKGGITTIMPSASEIVERYRRELLDPVFTGNSREVTTQTTNSPRPIGSDPDPLRIGEPRRGGSFIPSAFEPRPFGFPDVGRGDADPLGRGGHGNLFSFPSRPNMGPGPVPRFDPFNPLNPNRPGQGGINPDHMRPPDWNPDYYM [L210A]
disrupting interaction strength | MESGSTAKTGDFFYGWDLLYKTVKADVSKKSDLLIALVHFLLTKHYNFRCVGVGDDKTLPEEEGSELLPDSWNDDDTKYSLRYVHDKMLYLLLGHITEGSLLINLLDINTKKVSNICVEPETLVPEVKGGITTIMPSASEIVERYRRELLDPVFTGNSREVTTQTTNSPRPIGSDPDPLRIGEPRRGGSFIPSAFEPRPFGFPDVGRGDLDPLGRGGHGNLFSFPSRPNMGPGPVPRFDPANPLNPNRPGQGGINPDHMRPPDWNPDYYM [F241A]

Variants of: B2
Details: with psmd9_drome psmd9, Q9VFS8

effect of a mutation on the interaction | Variant
disrupting interaction strength | MESGSTAKTGDFFYGWDLLYKTVKADVSKKSDLLIALVHFLLTKHYNFRCVGVGDDKTLPEEEGSELLPDSWNDDDTKYSLRYVHDKMLYLLLGHITEGSLLINLLDINTKKVSNICVEPETLVPEVKGGITTIMPSASEIVERYRRELLDPVFTGNSREVTTQTTNSPRPIGSDPDPLRIGEPRRGGSFIPSAFEPRPFGFPDVGRGDLDPLGRGGHGNLFSFPSRPNMGPGPVPRFDPANPLNPNRPGQGGINPDHMRPPDWNPDYYM [F241A]
disrupting interaction strength | MESGSTAKTGDFFYGWDLLYKTVKADVSKKSDLLIALVHFLLTKHYNFRCVGVGDDKTLPEEEGSELLPDSWNDDDTKYSLRYVHDKMLYLLLGHITEGSLLINLLDINTKKVSNICVEPETLVPEVKGGITTIMPSASEIVERYRRELLDPVFTGNSREVTTQTTNSPRPIGSDPDPLRIGEPRRGGSFIPSAFEPRPFGFPDVGRGDADPLGRGGHGNLFSFPSRPNMGPGPVPRFDPFNPLNPNRPGQGGINPDHMRPPDWNPDYYM [L210A]

Variants of: B3
Details: with psmf1_drome PI31, Q9V637

effect of a mutation on the interaction | Variant
disrupting interaction strength | MEMEDNWWVTKLKALESKPQRLDALTAMNSAIAKEAALPRQIIARLLTTDQLYDCANPAADSHVPKDQAVDVTLELLCHCLDQLAMDTADEQLSSLLRRGLTHSNPALRAQVLASLFKKLLRQLTVGQVLTLPNNELIFLILDELKQPDTQSTSLAINILSIVLPQRISNADVQAKLVQLLKQNEIVRCRAYELAVVLAKKSATLLSDVTFILDAALSELDNDDVLLQASVMELLVPLAEQNHGLSYMERRRVLDIISYRVQRVEEHPLDALLVPSIMKFFGKISVYQPLKIIGGYPHMLACLFMQLQSEDESILPTAMDTLANLATTPQGKILLNMHFSGAMEKSFKKYGSHTKKLSAHIKKRLLNSLDVIYDFKTPPATEIINIGKNWYECFAGGAHANIIMDLINTPFPDLQMAALSFLKTICKYNWGIVALKNTGGAVEFLLSRQKDLHRDIKYMKWQIMEILSASAEFSPTETIRFTAYVNEGPYHVQADLDVATEPQGNA [E44A]
disrupting interaction strength | MEMEDNWWVTKLKALESKPQRLDALTAMNSAIAKEAALPRQIIERLLTTDQLYDCANPAADSHVPKDQAVDVTLELLCHCLDQLAMDTADEQLSSLLRRGLTHSNPALRAQVLASLFKKLLRQLTVGQVLTLPNNELIFLILDELKQPDTQSTSLAINILSIVLPQRISNADVQAKLVQLLKQNEIVRCRAYELAVVLAKKSATLLSDVTFILDAALSELDNDDVLLQASVMELLVPLAEQNHGLSYMERRRVLDIISYRVQAVEEHPLDALLVPSIMKFFGKISVYQPLKIIGGYPHMLACLFMQLQSEDESILPTAMDTLANLATTPQGKILLNMHFSGAMEKSFKKYGSHTKKLSAHIKKRLLNSLDVIYDFKTPPATEIINIGKNWYECFAGGAHANIIMDLINTPFPDLQMAALSFLKTICKYNWGIVALKNTGGAVEFLLSRQKDLHRDIKYMKWQIMEILSASAEFSPTETIRFTAYVNEGPYHVQADLDVATEPQGNA [R263A]

Variants of: B4
Details: with psmd5_drome psmd5, Q9VYG1

effect of a mutation on the interaction | Variant
disrupting interaction strength | MESGSTAKTGDFFYGWDLLYKTVKADVSKKSDLLIALVHFLLTKHYNFRCVGVGDDKTLPEEEGSELLPDSWNDDDTKYSLRYVHDKMLYLLLGHITEGSLLINLLDINTKKVSNICVEPETLVPEVKGGITTIMPSASEIVERYRRELLDPVFTGNSREVTTQTTNSPRPIGSDPDPLRIGEPRRGGSFIPSAFEPRPFGFPDVGRGDLDPLGRGGHGNLFSFPSRPNMGPGPVPRFDPANPLNPNRPGQGGINPDHMRPPDWNPDYYM [F241A]
disrupting interaction strength | MESGSTAKTGDFFYGWDLLYKTVKADVSKKSDLLIALVHFLLTKHYNFRCVGVGDDKTLPEEEGSELLPDSWNDDDTKYSLRYVHDKMLYLLLGHITEGSLLINLLDINTKKVSNICVEPETLVPEVKGGITTIMPSASEIVERYRRELLDPVFTGNSREVTTQTTNSPRPIGSDPDPLRIGEPRRGGSFIPSAFEPRPFGFPDVGRGDADPLGRGGHGNLFSFPSRPNMGPGPVPRFDPFNPLNPNRPGQGGINPDHMRPPDWNPDYYM [L210A]

Variants of: B5
Details: with psmf1_drome PI31, Q9V637

effect of a mutation on the interaction | Variant
disrupting interaction strength | MAAGTTTKARLERLINAKKQLEAQINRNGQILAANDNVGMSGPLVDAEGFPRNDIDVYQVRLARQTIICLQNDHKELMNQIQTLLNQYHSEIATTDPELVNRASALDLDSDRSPGGANITDLAPARAIVVVNLVSPDSPAERAGLCAGDAILRFGSINSGNFKGDLAQIGELVRNMQSQNVQLKVKRGEQQLDLILVPKTWSGRGLLGCNIVLPPEAMDH [E9A]
disrupting interaction strength | MAAGTTTKERLERLINAKKQLEAQINRNGQILAANDNVGMSGPLVDAEGFPRNDIDVYQVRLARQTIICLQNDHKELMNQIQTLLNQYHSEIATTDPELVNRASALDLDSDRSPGGANITDLAPARAIVVVNLVSPDSPAERAGLCAGDAILRFGSINSGNFKGDLAQIGELVRNMQSQNVQLKVKAGEQQLDLILVPKTWSGRGLLGCNIVLPPEAMDH [R187A]
